Measured values as given in PMC5345129.

Columns and labels:
[1] = target: myc-tagged, constitutively active Gα12 (GTPase-deficient Q229L mutant) (UniProt P27600); assay: GST co-precipitation (pull-down), immunoblot bands quantified with ImageJ; details: parent: 100; read off a plot
[2] = target: GST-fusion of the RH domain of LARG (leukemia-associated RhoGEF); assay: GST co-precipitation (pull-down) from HEK293 cell extracts, immunoblot bands quantified with ImageJ; details: parent: est. 100; read off a plot
[3] = target: GST-fusion of the 257-amino acid C-terminus of AKAP-Lbc; assay: as above; details: parent: est. 100; read off a plot
[4] = target: GST-fusion of the 257-amino acid region of p114RhoGEF corresponding to the Gα12-binding region of AKAP-Lbc; assay: as above; details: parent: est. 100; read off a plot
[5] = target: GST-fusion of the 257-amino acid C-terminus of AKAP-Lbc (human); assay: pull-down; GST fusion proteins bound to Glutathione Sepharose 4B; Gα variants from high-speed supernatants of transfected HEK293 cells, detergent diluted to 0.05% polyoxyethylene-10-lauryl ether; 50 mM HEPES pH 7.5, 1 mM EDTA, 3 mM dithiothreitol, 10 mM MgSO4; 2 h at 4°C; three washes; immunoblot (anti-Gα12, anti-myc or anti-EGFP); 5% of the extract kept as load
[6] = target: T1, GST-fusion of the 257-amino acid region of p114RhoGEF corresponding to the Gα12-binding region of AKAP-Lbc (human); assay: as above
T1 sequence (Q6ZSZ5 whole entry, looked up): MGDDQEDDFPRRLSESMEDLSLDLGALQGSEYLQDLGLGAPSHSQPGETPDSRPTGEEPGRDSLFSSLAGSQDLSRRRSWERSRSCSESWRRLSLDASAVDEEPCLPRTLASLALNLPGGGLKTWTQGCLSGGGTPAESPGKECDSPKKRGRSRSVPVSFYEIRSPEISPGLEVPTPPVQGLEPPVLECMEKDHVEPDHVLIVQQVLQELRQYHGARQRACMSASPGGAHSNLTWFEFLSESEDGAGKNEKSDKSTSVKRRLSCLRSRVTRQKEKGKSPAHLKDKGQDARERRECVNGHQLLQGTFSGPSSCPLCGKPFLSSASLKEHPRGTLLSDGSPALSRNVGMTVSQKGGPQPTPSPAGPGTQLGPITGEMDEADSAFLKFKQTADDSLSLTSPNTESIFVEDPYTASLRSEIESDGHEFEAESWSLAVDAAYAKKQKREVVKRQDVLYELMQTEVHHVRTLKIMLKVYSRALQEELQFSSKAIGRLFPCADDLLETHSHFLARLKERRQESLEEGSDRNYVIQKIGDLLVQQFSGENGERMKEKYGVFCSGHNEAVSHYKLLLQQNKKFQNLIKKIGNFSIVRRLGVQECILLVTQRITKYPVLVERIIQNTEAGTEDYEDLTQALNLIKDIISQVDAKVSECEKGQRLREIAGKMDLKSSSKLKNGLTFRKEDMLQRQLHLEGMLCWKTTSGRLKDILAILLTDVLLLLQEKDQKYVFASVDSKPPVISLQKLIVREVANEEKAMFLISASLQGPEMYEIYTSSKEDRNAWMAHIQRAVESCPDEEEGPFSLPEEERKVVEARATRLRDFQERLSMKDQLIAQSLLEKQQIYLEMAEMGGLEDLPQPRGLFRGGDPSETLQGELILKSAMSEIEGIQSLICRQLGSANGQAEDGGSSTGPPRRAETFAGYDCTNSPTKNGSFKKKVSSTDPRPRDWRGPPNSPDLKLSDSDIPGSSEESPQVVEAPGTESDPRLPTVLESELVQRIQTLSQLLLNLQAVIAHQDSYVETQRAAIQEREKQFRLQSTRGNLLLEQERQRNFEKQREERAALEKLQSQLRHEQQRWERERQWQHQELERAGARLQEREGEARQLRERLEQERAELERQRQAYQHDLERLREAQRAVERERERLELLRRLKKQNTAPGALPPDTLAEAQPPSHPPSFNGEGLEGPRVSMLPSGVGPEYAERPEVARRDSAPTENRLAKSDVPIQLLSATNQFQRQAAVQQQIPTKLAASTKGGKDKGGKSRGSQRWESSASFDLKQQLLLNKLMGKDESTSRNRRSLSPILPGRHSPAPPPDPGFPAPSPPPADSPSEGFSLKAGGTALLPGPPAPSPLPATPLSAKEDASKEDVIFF

Sequence of GST-fusion of the 257-amino acid C-terminus of AKAP-Lbc (human) (Q12802 whole entry, the tested form may be a part): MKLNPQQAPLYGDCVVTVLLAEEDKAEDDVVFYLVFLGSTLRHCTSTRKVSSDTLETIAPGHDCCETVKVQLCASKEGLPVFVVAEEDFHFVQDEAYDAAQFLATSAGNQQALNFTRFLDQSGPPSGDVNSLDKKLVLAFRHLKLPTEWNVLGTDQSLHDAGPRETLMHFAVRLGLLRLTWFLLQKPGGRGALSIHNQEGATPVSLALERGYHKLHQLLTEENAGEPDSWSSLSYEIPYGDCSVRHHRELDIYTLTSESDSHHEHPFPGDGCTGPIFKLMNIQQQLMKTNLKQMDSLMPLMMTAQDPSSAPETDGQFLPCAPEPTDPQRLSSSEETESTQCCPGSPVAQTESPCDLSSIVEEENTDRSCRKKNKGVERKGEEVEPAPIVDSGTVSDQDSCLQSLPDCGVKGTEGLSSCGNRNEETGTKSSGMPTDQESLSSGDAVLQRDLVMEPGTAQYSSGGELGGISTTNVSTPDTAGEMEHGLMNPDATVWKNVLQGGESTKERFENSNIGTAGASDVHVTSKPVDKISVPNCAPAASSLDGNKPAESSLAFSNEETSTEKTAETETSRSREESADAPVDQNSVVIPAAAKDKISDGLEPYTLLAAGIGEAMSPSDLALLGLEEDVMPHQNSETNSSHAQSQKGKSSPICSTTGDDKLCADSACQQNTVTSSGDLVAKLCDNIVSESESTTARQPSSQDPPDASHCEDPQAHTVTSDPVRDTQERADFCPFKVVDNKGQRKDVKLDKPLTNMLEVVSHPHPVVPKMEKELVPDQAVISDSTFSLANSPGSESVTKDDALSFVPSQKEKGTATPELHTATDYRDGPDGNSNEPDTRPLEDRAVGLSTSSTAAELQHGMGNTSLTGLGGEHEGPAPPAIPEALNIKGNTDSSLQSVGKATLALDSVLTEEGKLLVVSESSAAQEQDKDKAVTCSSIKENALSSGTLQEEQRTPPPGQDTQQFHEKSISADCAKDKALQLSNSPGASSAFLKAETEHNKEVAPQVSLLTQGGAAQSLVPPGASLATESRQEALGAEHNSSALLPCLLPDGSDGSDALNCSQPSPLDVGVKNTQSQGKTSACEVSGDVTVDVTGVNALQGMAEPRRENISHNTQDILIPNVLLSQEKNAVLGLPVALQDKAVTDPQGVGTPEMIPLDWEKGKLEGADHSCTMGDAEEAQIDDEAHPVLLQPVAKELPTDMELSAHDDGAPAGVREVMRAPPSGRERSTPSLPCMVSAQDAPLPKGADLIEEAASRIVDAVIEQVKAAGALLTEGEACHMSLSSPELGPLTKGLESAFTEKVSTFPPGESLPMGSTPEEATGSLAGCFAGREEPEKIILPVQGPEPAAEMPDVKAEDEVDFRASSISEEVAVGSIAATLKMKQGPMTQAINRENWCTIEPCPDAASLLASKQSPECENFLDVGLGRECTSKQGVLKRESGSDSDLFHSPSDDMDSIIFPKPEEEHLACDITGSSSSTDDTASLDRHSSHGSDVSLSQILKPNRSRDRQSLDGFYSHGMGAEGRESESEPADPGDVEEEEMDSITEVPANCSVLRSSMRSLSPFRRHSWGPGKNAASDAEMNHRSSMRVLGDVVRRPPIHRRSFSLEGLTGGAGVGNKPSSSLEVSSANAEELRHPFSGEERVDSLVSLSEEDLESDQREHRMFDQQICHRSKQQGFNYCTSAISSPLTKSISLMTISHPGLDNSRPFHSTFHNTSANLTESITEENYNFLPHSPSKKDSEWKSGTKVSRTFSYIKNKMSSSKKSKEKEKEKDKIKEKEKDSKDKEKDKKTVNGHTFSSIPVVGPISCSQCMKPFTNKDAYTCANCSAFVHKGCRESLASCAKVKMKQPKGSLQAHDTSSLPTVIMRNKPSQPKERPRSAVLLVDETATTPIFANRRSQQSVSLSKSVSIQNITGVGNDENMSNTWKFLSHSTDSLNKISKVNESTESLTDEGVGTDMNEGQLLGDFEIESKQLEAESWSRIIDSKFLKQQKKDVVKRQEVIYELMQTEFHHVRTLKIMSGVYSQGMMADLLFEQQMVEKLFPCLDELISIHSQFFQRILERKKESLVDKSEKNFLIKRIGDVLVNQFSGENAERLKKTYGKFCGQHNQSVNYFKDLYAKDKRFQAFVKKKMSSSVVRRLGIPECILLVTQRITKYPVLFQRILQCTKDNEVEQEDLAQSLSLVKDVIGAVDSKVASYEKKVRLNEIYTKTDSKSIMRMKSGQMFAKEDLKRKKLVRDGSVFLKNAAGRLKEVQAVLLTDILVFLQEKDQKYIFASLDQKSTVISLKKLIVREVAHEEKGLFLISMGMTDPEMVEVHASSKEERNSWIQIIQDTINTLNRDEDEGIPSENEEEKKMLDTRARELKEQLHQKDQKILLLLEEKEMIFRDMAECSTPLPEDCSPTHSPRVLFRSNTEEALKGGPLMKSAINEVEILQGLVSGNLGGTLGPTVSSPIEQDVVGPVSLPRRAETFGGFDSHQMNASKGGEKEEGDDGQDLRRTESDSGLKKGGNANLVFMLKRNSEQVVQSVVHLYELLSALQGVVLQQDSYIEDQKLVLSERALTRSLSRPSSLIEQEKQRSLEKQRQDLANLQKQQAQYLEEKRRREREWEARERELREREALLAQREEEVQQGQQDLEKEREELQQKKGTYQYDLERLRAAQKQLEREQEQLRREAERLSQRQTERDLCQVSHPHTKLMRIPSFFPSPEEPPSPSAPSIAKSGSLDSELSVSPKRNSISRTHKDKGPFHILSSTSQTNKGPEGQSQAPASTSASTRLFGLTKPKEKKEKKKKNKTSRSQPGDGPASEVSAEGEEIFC

GST-fusion of the 257-amino acid C-terminus of AKAP-Lbc E2576R
percent of parent [1]: 29 % of control

GST-fusion of the 257-amino acid C-terminus of AKAP-Lbc E2670R
percent of parent [1]: 33 % of control

GST-fusion of the 257-amino acid region of p114RhoGEF corresponding to the Gα12-binding region of AKAP-Lbc E695R
percent of parent [1]: 42 % of control

GST-fusion of the 257-amino acid region of p114RhoGEF corresponding to the Gα12-binding region of AKAP-Lbc E789R
percent of parent [1]: 37 % of control

myc-tagged, constitutively active Gα12 (GTPase-deficient Q229L mutant) (from UniProt P27600) C11A
percent of parent (% of 12QL control) [2]: 92

myc-tagged, constitutively active Gα12 (GTPase-deficient Q229L mutant) (from UniProt P27600) Δ244-249 (sextet Asn-Ala-Ala-Ile-Arg-Ser in place of native residues 244-249)
percent of parent (% of 12QL control) [3]: 105 | percent of parent (% of 12QL control) [4]: 95 | percent of parent (% of 12QL control) [2]: 16

B1: myc-tagged, constitutively active Gα12 (Q229L) with C11A substitution (natural protein)
chain: MSGVVRTLSRALLPAEAGARERRAGAARDAEREARRRSRDIDALLARERRAVRRLVKILLLGAGESGKSTFLKQMRIIHGREFDQKALLEFRDTIFDNILKGSRVLVDARDKLGIPWQHSENEKHGMFLMAFENKAGLPVEPATFQLYVPALSALWRDSGIREAFSRRSEFQLGESVKYFLDNLDRIGQLNYFPSKQDILLARKATKGIVEHDFVIKKIPFKMVDVGGLRSQRQKWFQCFDGITSILFMVSSSEYDQVLMEDRRTNRLVESMNIFETIVNNKLFFNVSIILFLNKMDLLVEKVKSVSIKKHFPDFKGDPHRLEDVQRYLVQCFDRKRRNRSKPLFHHFTTAIDTENIRFVFHAVKDTILQENLKDIMLQ
% loss of binding (co-precipitated Gα12 normalized for starting material, against non-mutated Gα12 Q229L) [5]: 60% | % loss of binding (co-precipitated Gα12 normalized for starting material, against non-mutated Gα12 Q229L) [6]: 72%
